Source: US20130344073A1 (OMEROS, published 2013)

Molecular target: T1, human MASP-3 (human)
T1 construct: For selection and FACS it was full-length or a fragment, fused to an Fc domain or labelled with Dylight; also called MASP-3 antigen; rMASP-3
T1 chain: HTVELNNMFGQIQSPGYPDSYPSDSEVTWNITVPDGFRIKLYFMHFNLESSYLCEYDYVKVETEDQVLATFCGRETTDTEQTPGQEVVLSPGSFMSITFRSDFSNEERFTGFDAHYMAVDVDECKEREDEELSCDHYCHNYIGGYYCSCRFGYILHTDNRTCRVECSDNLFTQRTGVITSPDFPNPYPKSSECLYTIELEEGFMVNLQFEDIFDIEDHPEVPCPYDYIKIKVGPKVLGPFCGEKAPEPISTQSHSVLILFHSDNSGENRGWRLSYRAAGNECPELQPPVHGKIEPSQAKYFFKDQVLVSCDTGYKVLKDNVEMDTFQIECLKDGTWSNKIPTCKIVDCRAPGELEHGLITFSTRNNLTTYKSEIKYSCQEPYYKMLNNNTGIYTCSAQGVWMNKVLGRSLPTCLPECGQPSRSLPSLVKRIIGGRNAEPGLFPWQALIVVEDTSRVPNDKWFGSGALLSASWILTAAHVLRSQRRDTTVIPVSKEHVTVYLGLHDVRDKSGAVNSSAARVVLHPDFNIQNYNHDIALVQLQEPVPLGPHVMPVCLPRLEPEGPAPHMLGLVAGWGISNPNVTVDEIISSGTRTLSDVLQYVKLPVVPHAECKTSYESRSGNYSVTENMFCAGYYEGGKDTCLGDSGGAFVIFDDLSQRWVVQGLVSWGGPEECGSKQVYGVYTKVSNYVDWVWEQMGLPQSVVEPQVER
Experiment: saturation binding; DTLacO cells expressing the antibody stained with various concentrations of fluorescent-labeled soluble antigen
Text: Recombinant antibodies were generated by cloning PCR-amplified V regions into a vector that supported expression of human IgG1 in 293F cells (Yabuki et al., PLoS ONE, 7(4):e36032 (2012)).

B1: MASP-3 specific clone M3J5 (antibody, V domains shown)
VH: AVTLDESGGGLQTPGGGLSLVCKASGFTFSSYAMGWMRQAPGKGLEYVAGIRSDGSFTLYATAVKGRATISRDNGQSTVRLQLNNLRAEDTATYFCTRSGNVGDIDAWGHGTEVIVSS
VL: ALTQPASVSANPGETVKITCSGGYSGYAGSYYYGWYQQKAPGSAPVTLIYYNNKRPSDIPSRFSGSLSGSTNTLTITGVRADDEAVYFCGSADNSGAAFGAGTTLTVL
notes: Chicken V regions; recombinant form is chimeric with human IgG1 and lambda constant regions; also called Clone 5; DTLacO clone M3J5
Question: With B1 as the binder, how does the Kd read?
Answer: ~31 nM
